According to US20160304570A1:

Experiments:
Assay in all cases: cell-based or functional assay
[1] = biological target: human Nav1.5 voltage-gated sodium channel (human) (UniProt Q14524)
[2] = biological target: human Nav1.3 voltage-gated sodium channel (human) (UniProt Q9NY46)
[3] = biological target: human Nav1.7 voltage-gated sodium channel (human) (UniProt Q15858)
[4] = biological target: human voltage-gated sodium channel Nav1.5 (human) (UniProt Q14524)
[5] = biological target: human voltage-gated sodium channel Nav1.7 (human) (UniProt Q15858)
[6] = biological target: human voltage-gated sodium channel Nav1.5 (human) (UniProt Q14524); remark: listed apart in the source
[7] = biological target: human voltage-gated sodium channel Nav1.7 (human) (UniProt Q15858); remark: listed apart in the source
[8] = biological target: human voltage-gated sodium channel Nav1.3 (human) (UniProt Q9NY46)
[9] = biological target: human voltage-gated sodium channel Nav1.4 (human) (UniProt P35499)
Sequence of human voltage-gated sodium channel Nav1.4 (human) (P35499 whole entry): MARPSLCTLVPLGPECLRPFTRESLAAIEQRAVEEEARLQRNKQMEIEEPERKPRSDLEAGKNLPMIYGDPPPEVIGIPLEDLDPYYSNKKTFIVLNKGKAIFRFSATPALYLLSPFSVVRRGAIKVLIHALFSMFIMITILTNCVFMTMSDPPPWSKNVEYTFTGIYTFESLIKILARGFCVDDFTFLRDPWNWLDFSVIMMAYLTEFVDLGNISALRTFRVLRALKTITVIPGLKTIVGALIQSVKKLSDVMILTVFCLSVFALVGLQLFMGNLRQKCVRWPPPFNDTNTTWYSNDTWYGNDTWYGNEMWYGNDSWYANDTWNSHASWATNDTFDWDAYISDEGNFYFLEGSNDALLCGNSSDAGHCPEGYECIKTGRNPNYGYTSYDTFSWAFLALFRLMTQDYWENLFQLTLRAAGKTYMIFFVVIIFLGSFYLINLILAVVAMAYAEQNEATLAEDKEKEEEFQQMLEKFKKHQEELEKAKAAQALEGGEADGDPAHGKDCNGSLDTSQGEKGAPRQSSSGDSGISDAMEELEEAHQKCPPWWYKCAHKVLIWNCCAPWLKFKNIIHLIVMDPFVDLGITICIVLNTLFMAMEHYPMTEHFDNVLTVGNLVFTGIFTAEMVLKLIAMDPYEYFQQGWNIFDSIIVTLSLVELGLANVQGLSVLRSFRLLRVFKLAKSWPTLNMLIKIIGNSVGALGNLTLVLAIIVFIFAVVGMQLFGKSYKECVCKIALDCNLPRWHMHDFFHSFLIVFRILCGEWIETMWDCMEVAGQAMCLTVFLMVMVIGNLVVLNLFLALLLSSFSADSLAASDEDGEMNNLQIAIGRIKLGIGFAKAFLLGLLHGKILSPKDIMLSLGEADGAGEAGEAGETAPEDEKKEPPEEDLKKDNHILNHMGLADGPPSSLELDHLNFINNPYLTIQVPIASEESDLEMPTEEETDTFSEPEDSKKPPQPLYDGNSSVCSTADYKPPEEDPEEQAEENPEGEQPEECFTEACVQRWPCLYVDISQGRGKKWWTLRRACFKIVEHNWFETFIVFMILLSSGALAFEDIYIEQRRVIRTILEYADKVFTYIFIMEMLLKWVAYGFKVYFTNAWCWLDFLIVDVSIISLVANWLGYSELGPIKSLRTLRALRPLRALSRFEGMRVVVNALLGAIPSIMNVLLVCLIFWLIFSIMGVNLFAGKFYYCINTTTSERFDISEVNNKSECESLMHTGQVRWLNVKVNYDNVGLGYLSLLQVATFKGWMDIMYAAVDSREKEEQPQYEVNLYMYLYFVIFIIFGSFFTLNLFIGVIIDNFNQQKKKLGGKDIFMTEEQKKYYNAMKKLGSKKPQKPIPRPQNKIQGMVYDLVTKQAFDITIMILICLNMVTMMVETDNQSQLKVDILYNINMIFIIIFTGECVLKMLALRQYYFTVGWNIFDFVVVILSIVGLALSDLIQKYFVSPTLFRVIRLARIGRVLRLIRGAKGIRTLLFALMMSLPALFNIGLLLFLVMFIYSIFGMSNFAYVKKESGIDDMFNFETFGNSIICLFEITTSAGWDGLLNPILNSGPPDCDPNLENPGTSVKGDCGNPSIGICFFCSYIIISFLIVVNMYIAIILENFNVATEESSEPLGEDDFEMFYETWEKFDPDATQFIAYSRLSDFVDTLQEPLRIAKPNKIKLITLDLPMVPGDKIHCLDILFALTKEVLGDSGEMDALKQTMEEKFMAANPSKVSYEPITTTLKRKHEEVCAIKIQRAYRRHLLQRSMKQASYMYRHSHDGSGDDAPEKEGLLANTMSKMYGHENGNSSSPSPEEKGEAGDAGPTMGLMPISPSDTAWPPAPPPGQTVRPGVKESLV

Sequence of human Nav1.3 voltage-gated sodium channel (human) (Q9NY46 whole entry): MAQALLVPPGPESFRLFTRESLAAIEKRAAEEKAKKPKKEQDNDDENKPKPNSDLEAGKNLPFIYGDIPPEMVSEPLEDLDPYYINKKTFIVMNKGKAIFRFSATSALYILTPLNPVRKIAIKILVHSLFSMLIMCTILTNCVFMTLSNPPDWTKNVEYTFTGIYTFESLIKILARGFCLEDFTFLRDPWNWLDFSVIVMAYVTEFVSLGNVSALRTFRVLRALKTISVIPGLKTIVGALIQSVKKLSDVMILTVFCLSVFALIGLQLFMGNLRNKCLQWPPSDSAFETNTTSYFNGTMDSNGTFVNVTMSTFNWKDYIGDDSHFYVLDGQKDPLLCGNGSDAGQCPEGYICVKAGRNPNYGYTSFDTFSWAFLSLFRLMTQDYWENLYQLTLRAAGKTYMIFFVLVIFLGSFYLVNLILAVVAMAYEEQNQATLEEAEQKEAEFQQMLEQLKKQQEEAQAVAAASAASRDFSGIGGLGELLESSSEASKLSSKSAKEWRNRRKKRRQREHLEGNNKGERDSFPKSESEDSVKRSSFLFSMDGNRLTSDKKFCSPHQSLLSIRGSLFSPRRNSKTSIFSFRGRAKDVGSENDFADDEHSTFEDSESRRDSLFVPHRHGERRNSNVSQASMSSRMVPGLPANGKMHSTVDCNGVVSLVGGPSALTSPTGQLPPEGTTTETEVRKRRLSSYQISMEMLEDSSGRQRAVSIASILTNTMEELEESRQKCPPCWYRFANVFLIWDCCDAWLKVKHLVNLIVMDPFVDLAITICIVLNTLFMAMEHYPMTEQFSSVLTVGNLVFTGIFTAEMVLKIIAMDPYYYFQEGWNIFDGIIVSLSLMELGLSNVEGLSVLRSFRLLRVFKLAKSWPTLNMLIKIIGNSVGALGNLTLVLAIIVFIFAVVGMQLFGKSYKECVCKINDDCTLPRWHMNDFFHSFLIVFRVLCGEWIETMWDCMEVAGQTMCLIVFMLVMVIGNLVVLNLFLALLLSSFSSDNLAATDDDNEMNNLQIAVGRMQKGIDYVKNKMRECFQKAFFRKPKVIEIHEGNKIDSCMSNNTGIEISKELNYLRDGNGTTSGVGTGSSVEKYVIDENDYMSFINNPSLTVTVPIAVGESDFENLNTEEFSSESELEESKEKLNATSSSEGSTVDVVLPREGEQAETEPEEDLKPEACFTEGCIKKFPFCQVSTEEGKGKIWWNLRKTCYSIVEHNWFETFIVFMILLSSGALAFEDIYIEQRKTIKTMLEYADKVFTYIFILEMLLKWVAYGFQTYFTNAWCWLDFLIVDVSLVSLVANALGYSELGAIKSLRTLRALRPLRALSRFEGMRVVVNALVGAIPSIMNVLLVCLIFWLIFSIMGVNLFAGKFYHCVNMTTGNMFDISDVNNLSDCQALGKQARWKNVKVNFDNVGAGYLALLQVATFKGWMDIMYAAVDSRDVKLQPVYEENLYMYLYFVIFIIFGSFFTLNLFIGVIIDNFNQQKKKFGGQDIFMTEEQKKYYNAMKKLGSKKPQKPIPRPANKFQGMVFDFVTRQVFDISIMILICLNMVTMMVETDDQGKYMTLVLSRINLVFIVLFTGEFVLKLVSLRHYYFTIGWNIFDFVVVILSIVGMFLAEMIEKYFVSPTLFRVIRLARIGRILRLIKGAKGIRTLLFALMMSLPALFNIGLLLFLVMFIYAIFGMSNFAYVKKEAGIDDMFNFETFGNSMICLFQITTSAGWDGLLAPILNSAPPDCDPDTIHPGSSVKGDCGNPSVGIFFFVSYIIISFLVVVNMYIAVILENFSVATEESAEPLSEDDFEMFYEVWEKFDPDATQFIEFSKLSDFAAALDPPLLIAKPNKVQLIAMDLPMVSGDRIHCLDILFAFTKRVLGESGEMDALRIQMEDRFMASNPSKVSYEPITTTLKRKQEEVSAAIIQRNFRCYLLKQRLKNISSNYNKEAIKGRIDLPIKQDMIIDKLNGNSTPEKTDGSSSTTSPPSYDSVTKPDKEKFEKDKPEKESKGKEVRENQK
Sequence of human voltage-gated sodium channel Nav1.3 (human) (Q9NY46 whole entry): as above

## 4-Pen-[2-Abu5,13;Leu6;Arg28]GpTx-1(1-34) (peptide)
[1]
  IWQ Use Nav1.5 IC50 (IonWorks Quattro electrophysiology): 36.8 µM
[2]
  IWQ Use Nav1.3 IC50 (IonWorks Quattro electrophysiology): 0.9 µM
[3]
  IWQ Use Nav1.7 IC50 (IonWorks Quattro electrophysiology): 0.54 µM
[4]
  Nav1.5 Use IC50 (µM), electrophysiology by PatchXpress: > 10 µM
[5]
  Nav1.7 Use IC50 (µM), electrophysiology by PatchXpress: 0.003 µM

## 4-Pen-[Ala5;Phe6;2-Abu13;Arg28]GpTx-1(1-34) (peptide)
[6]
  IWQ Use Nav1.5 IC50 (IonWorks Quattro electrophysiology): 44.4 µM
[7]
  IWQ Use Nav1.7 IC50 (IonWorks Quattro electrophysiology): 0.18 µM
[8]
  IWQ Use Nav1.3 IC50 (IonWorks Quattro electrophysiology): 0.26 µM
[4]
  Nav1.5 Use IC50 (µM), electrophysiology by PatchXpress: > 10 µM
[5]
  Nav1.7 Use IC50 (µM), electrophysiology by PatchXpress: 0.004 µM

## 4-Pen-[Nva5;Leu6;2-Abu13;Arg28]GpTx-1(1-34) (peptide)
[6]
  IWQ Use Nav1.5 IC50 (IonWorks Quattro electrophysiology): 46.2 µM
[7]
  IWQ Use Nav1.7 IC50 (IonWorks Quattro electrophysiology): 0.1 µM
[8]
  IWQ Use Nav1.3 IC50 (IonWorks Quattro electrophysiology): 0.23 µM

## ((2-Hydroxyethyl)thio)acetamide-NPEG11-triazole-[2-Abu5,13;Leu6;Arg28]GpTx-1(1-34) (peptide)
[4]
  Nav1.5 Use IC50 (PatchXpress electrophysiology, inhibition of sodium current): > 10 µM
[5]
  Nav1.7 Use IC50 (PatchXpress electrophysiology, inhibition of sodium current): 0.087 µM
[9]
  Nav1.4 Use IC50 (PatchXpress electrophysiology, inhibition of sodium current): > 10 µM

## Biotin-Ahx-[2-Abu5,13;Leu6;Arg28]GpTx-1(1-34) (peptide)
[4]
  Nav1.5 Use IC50 (µM), PatchXpress electrophysiology: > 10 µM
[5]
  Nav1.7 Use IC50 (µM), PatchXpress electrophysiology: 0.011 µM
[9]
  Nav1.4 Use IC50 (µM), PatchXpress electrophysiology: 27.3 µM

## [2-Abu5,Leu6,K(ethyl-triazole-PEG11-((2-hydroxyethyl)thio)acetamide)13,Arg28]GpTx-1(1-34) (peptide)
[4]
  Nav1.5 Use IC50 (PatchXpress electrophysiology, inhibition of sodium current): > 10 µM
[5]
  Nav1.7 Use IC50 (PatchXpress electrophysiology, inhibition of sodium current): 0.018 µM
[9]
  Nav1.4 Use IC50 (PatchXpress electrophysiology, inhibition of sodium current): 9.88 µM

## [2-Abu5;Leu6;K(4-Pen)13;Arg28]GpTx-1(1-34) (peptide)
[1]
  IWQ Use Nav1.5 IC50 (IonWorks Quattro electrophysiology): 39.7 µM
[2]
  IWQ Use Nav1.3 IC50 (IonWorks Quattro electrophysiology): 0.81 µM
[3]
  IWQ Use Nav1.7 IC50 (IonWorks Quattro electrophysiology): 0.55 µM
[4]
  Nav1.5 Use IC50 (µM), electrophysiology by PatchXpress: > 10 µM
[5]
  Nav1.7 Use IC50 (µM), electrophysiology by PatchXpress: 0.002 µM

## [Ala5;Leu6,26;Pra12;Arg28]GpTx-1(1-34) (peptide)
[1]
  IWQ Use Nav1.5 IC50 (IonWorks Quattro electrophysiology): > 50 µM
[2]
  IWQ Use Nav1.3 IC50 (IonWorks Quattro electrophysiology): 0.54 µM
[3]
  IWQ Use Nav1.7 IC50 (IonWorks Quattro electrophysiology): 0.26 µM

## [Ala5;Leu6,26;Pra13;Arg28]GpTx-1(1-34) (peptide)
[1]
  IWQ Use Nav1.5 IC50 (IonWorks Quattro electrophysiology): 36.4 µM
[2]
  IWQ Use Nav1.3 IC50 (IonWorks Quattro electrophysiology): 0.48 µM
[3]
  IWQ Use Nav1.7 IC50 (IonWorks Quattro electrophysiology): 0.22 µM
[4]
  Nav1.5 Use IC50 (µM), electrophysiology by PatchXpress: > 10 µM
[5]
  Nav1.7 Use IC50 (µM), electrophysiology by PatchXpress: 0.009 µM

## [Ala5;Phe6,13;Arg28]GpTx-1(1-34)-FreeAcid (peptide)
[8]
  IWQ Use Nav1.3 IC50: 1.2 µM

## [Ala5;Phe6;Arg13,28]GpTx-1(1-34)-FreeAcid (peptide)
[7]
  IWQ Use Nav1.7 IC50: 4.5 µM
[8]
  IWQ Use Nav1.3 IC50: 0.6 µM

## [Ala5;Phe6;Asp13;Arg28]GpTx-1(1-34)-FreeAcid (peptide)
[8]
  IWQ Use Nav1.3 IC50: 2.3 µM

## [Ala5;Phe6;Gln13;Arg28]GpTx-1(1-34)-FreeAcid (peptide)
[8]
  IWQ Use Nav1.3 IC50: 1.7 µM

## [Ala5;Phe6;Glu10;Atz(PEG3-((2-hydroxyethyl)thio)acetamide)13;Leu26;Arg28]GpTx-1(1-34) (peptide)
[4]
  Nav1.5 Use IC50 (PatchXpress electrophysiology, inhibition of sodium current): > 10 µM
[5]
  Nav1.7 Use IC50 (PatchXpress electrophysiology, inhibition of sodium current): 0.013 µM
[9]
  Nav1.4 Use IC50 (PatchXpress electrophysiology, inhibition of sodium current): 5.95 µM

## [Ala5;Phe6;Glu10;Atz(PEG11-((2-hydroxyethyl)thio)acetamide)13;Leu26;Arg28]GpTx-1(1-34) (peptide)
[4]
  Nav1.5 Use IC50 (PatchXpress electrophysiology, inhibition of sodium current): > 10 µM
[5]
  Nav1.7 Use IC50 (PatchXpress electrophysiology, inhibition of sodium current): 0.021 µM
[9]
  Nav1.4 Use IC50 (PatchXpress electrophysiology, inhibition of sodium current): > 10 µM

## [Ala5;Phe6;Glu10;K(Biotin)13;Leu26;Arg28]GpTx-1(1-34) (peptide)
[4]
  Nav1.5 Use IC50 (µM), PatchXpress electrophysiology: > 10 µM
[5]
  Nav1.7 Use IC50 (µM), PatchXpress electrophysiology: 0.015 µM
[9]
  Nav1.4 Use IC50 (µM), PatchXpress electrophysiology: 7.13 µM

## [Ala5;Phe6;Glu10;Pra13;Leu26;Arg28]GpTx-1(1-34) (peptide)
[1]
  IWQ Use Nav1.5 IC50 (IonWorks Quattro electrophysiology): 32.2 µM
[2]
  IWQ Use Nav1.3 IC50 (IonWorks Quattro electrophysiology): 0.56 µM
[3]
  IWQ Use Nav1.7 IC50 (IonWorks Quattro electrophysiology): 0.54 µM
[4]
  Nav1.5 Use IC50 (µM), electrophysiology by PatchXpress: 15.3 µM
[5]
  Nav1.7 Use IC50 (µM), electrophysiology by PatchXpress: 0.012 µM

## [Ala5;Phe6;Glu13;Arg28]GpTx-1(1-34)-FreeAcid (peptide)
[8]
  IWQ Use Nav1.3 IC50: 1.9 µM

## [Ala5;Phe6;Gly13;Arg28]GpTx-1(1-34)-FreeAcid (peptide)
[8]
  IWQ Use Nav1.3 IC50: 1.5 µM
